Source: publication PMC12630686, “A degron-mimicking molecular glue drives CRBN homo-dimerization and degradation” (Nature Communications, 2025)

B1: HaloTag-CRBN (human, wild type) [human] / hCRBN-NanoLuc with a 191-248 aa deletion (Trunc) [human] (parent)
chain 1: MAGEGDQQDAAHNMGNHLPLLPAESEEEDEMEVEDQDSKEAKKPNIINFDTSLPTSHTYLGADMEEFHGRTLHDDDSCQVIPVLPQVMMILIPGQTLPLQLFHPQEVSMVRNLIQKDRTFAVLAYSNVQEREAQFGTTAEIYAYREEQDFGIEIVKVKAIGRQRFKVLELRTQSDGIQQAKVQILPECVLPSTMSAVQLESLNKCQIFPSKPVSREDQCSYKWWQKYQKRKFHCANLTSWPRWLYSLYDAETLMDRIKKQLREWDENLKDDSLPSNPIDFSYRVAACLPIDDVLRIQLLKIGSAIQRLRCELDIMNKCTSLCCKQCQETEITTKNEIFSLSLCGPMAAYVNPHGYVHETLTVYKACNLNLIGRPSTEHSWFPGYAWTVAQCKICASHIGWKFTATKKDMSPQKFWGLTRSALLPTIPDTEDEISPDKVILCL
chain 2: MAGEGDQQDAAHNMGNHLPLLPAESEEEDEMEVEDQDSKEAKKPNIINFDTSLPTSHTYLGADMEEFHGRTLHDDDSCQVIPVLPQVMMILIPGQTLPLQLFHPQEVSMVRNLIQKDRTFAVLAYSNVQEREAQFGTTAEIYAYREEQDFGIEIVKVKAIGRQRFKVLELRTQSDGIQQAKVQILPECVLDAETLMDRIKKQLREWDENLKDDSLPSNPIDFSYRVAACLPIDDVLRIQLLKIGSAIQRLRCELDIMNKCTSLCCKQCQETEITTKNEIFSLSLCGPMAAYVNPHGYVHETLTVYKACNLNLIGRPSTEHSWFPGYAWTVAQCKICASHIGWKFTATKKDMSPQKFWGLTRSALLPTIPDTEDEISPDKVILCL
B2: HaloTag-mouse CRBN (wild type) [mouse] / hCRBN-NanoLuc with a 191-248 aa deletion (Trunc) [human] (parent)
chain 1: MAGEGDQQDAAHNMGNHLPLLPADSEDEDDEIEMEVEDQDSKEARKPNIINFDTSLPTSHTYLGADMEEFHGRTLHDDDSCQVIPVLPEVLMILIPGQTLPLQLSHPQEVSMVRNLIQKDRTFAVLAYSNVQEREAQFGTTAEIYAYREEQEFGIEVVKVKAIGRQRFKVLELRTQSDGIQQAKVQILPECVLPSTMSAVQLESLNKCQVFPSKPISWEDQYSCKWWQKYQKRKFHCANLTSWPRWLYSLYDAETLMDRIKKQLREWDENLKDDSLPENPIDFSYRVAACLPIDDVLRIQLLKIGSAIQRLRCELDIMNKCTSLCCKQCQETEITTKNEIFSLSLCGPMAAYVNPHGYVHETLTVYKASNLNLIGRPSTVHSWFPGYAWTIAQCKICASHIGWKFTATKKDMSPQKFWGLTRSALLPTIPETEDEISPDKVILCL
chain 2: B1 chain 2

Variants of: B1
Assay: NanoBRET
Details: with hCRBN-NanoLuc with a 191-248 aa deletion (Trunc) [human]; MRT-31619 at log10 concentration = 4 (highest dose; concentration unit inferred); three biological replicates, mean ± SEM; read off a plot

Row | response [mBU] | Variant
1 | 2.6 | chain 1 MAGEGDQQDAAHNMGNHLPLLPAESEEEDEMEVEDQDSKEAKKPNIINFDTSLPTSHTYLGADMEEFHGRTLHDDDSCQVIPVLPQVMMILIPGQTLPLQLFHPQEVSMVRNLIQKDRTFAVLAYSNVQEREAQFGTTAEIYAYREEQDFGIEIVKVKAIGRQRFKVLELRTQSDGIQQAKVQILPECVLPSTMSAVQLESLNKCQIFPSKPVSREDQCSYKWWQKYQKRKFHCANLTSWPRWLYSLYDAETLMDRIKKQLREWDENLKDDSLPSNPIDFSYRVAACLPIDDVLRIQLLKIGSAIQRLRCELDIMNKCTSLCCKQCQETEITTKNEIFSLSLCGPMAAYVNPHGYVHETLTVYKACNLNLIGAPSTEHSWFPGYAWTVAQCKICASHIGWKFTATKKDMSPQKFWGLTRSALLPTIPDTEDEISPDKVILCL [chain 1 R373A]
2 | 2.9 | chain 1 MAGEGDQQDAAHNMGNHLPLLPAESEEEDEMEVEDQDSKEAKKPNIINFDTSLPTSHTYLGADMEEFHGRTLHDDDSCQVIPVLPQVMMILIPGQTLPLQLFHPQEVSMVRNLIQKDRTFAVLAYSNVQEREAQFGTTAEIYAYREEQDAGIEIVKVKAIGRQRFKVLELRTQSDGIQQAKVQILPECVLPSTMSAVQLESLNKCQIFPSKPVSREDQCSYKWWQKYQKRKFHCANLTSWPRWLYSLYDAETLMDRIKKQLREWDENLKDDSLPSNPIDFSYRVAACLPIDDVLRIQLLKIGSAIQRLRCELDIMNKCTSLCCKQCQETEITTKNEIFSLSLCGPMAAYVNPHGYVHETLTVYKACNLNLIGAPSTEHSWFPGYAWTVAQCKICASHIGWKFTATKKDMSPQKFWGLTRSALLPTIPDTEDEISPDKVILCL [chain 1 F150A R373A]
3 | 3.3 | chain 1 MAGEGDQQDAAHNMGNHLPLLPAESEEEDEMEVEDQDSKEAKKPNIINFDTSLPTSHTYLGADMEEFHGRTLHDDDSCQVIPVLPQVMMILIPGQTLPLQLFHPQEVSMVRNLIQKDRTFAVLAYSNVQEREAQFGTTAEIYAYREEQDFGIEIVKVKAIGRQRFKVLELRTQSDGIQQAKVQILPECVLPSTMSAVQLESLNKCQIFPSKPVSREDQCSYKWWQKYQKRKFHCANLTSWPRWLYSLYDAETLMDRIKKQLREWDENLKDDSLPSNPIDFSYRVAACLPIDDVLRIQLLKIGSAIQRLRCELDIMNKCTSLCCKQCQETEITTKNEIFSLSLCGPMAAYVNPHGYVHETLTVYKACNLNLIGRPSTAHSWFPGYAWTVAQCKICASHIGWKFTATKKDMSPQKFWGLTRSALLPTIPDTEDEISPDKVILCL [chain 1 E377A]
4 | 3.7 | chain 1 MAGEGDQQDAAHNMGNHLPLLPAESEEEDEMEVEDQDSKEAKKPNIINFDTSLPTSHTYLGADMEEFHGRTLHDDDSCQVIPVLPQVMMILIPGQTLPLQLFHPQEVSMVRNLIQKDRTFAVLAYSNVQEREAQFGTTAEIYAYREEQDAGIEIVKVKAIGRQRFKVLELRTQSDGIQQAKVQILPECVLPSTMSAVQLESLNKCQIFPSKPVSREDQCSYKWWQKYQKRKFHCANLTSWPRWLYSLYDAETLMDRIKKQLREWDENLKDDSLPSNPIDFSYRVAACLPIDDVLRIQLLKIGSAIQRLRCELDIMNKCTSLCCKQCQETEITTKNEIFSLSLCGPMAAYVNPHGYVHETLTVYKACNLNLIGRPSTEHSWFPGYAWTVAQCKICASHIGWKFTATKKDMSPQKFWGLTRSALLPTIPDTEDEISPDKVILCL [chain 1 F150A]

Variants of: B2
Assay: NanoBRET
Details: with hCRBN-NanoLuc with a 191-248 aa deletion (Trunc) [human]; MRT-31619 at log10 concentration = 4 (highest dose; concentration unit inferred); six biological replicates, mean ± SD; read off a plot

Row | response [mBU] | Variant
5 | 1.9 | chain 1 MAGEGDQQDAAHNMGNHLPLLPADSEDEDDEIEMEVEDQDSKEARKPNIINFDTSLPTSHTYLGADMEEFHGRTLHDDDSCQVIPVLPEVLMILIPGQTLPLQLFHPQEVSMVRNLIQKDRTFAVLAYSNVQEREAQFGTTAEIYAYREEQEFGIEVVKVKAIGRQRFKVLELRTQSDGIQQAKVQILPECVLPSTMSAVQLESLNKCQVFPSKPISWEDQYSCKWWQKYQKRKFHCANLTSWPRWLYSLYDAETLMDRIKKQLREWDENLKDDSLPENPIDFSYRVAACLPIDDVLRIQLLKIGSAIQRLRCELDIMNKCTSLCCKQCQETEITTKNEIFSLSLCGPMAAYVNPHGYVHETLTVYKASNLNLIGRPSTVHSWFPGYAWTIAQCKICASHIGWKFTATKKDMSPQKFWGLTRSALLPTIPETEDEISPDKVILCL [chain 1 S105F]
6 | 2.7 | chain 1 MAGEGDQQDAAHNMGNHLPLLPADSEDEDDEIEMEVEDQDSKEARKPNIINFDTSLPTSHTYLGADMEEFHGRTLHDDDSCQVIPVLPEVLMILIPGQTLPLQLSHPQEVSMVRNLIQKDRTFAVLAYSNVQEREAQFGTTAEIYAYREEQEFGIEVVKVKAIGRQRFKVLELRTQSDGIQQAKVQILPECVLPSTMSAVQLESLNKCQVFPSKPISWEDQYSCKWWQKYQKRKFHCANLTSWPRWLYSLYDAETLMDRIKKQLREWDENLKDDSLPENPIDFSYRVAACLPIDDVLRIQLLKIGSAIQRLRCELDIMNKCTSLCCKQCQETEITTKNEIFSLSLCGPMAAYVNPHGYVHETLTVYKASNLNLIGRPSTEHSWFPGYAWTVAQCKICASHIGWKFTATKKDMSPQKFWGLTRSALLPTIPETEDEISPDKVILCL [chain 1 V380E I391V]
